Assay [1] concerns the target Human CD3e/g protein (human) (UniProt P07766). The experiment in a line: ELISA, coated hCD3e/g. (In general: ELISA stands for enzyme-linked immunosorbent assay.)
Assay [2] addresses Cynomolgus monkey CD3e/g protein (cynomolgus monkey). The experiment in a line: ELISA, coated cyno CD3e/g.
Assay [3] addresses human CD3e/d protein (Sinobiological, CAT: CT038-H2508H-B) (human) (UniProt P07766). The experiment in a line: ELISA, coated hCD3e/d.

The results in this text go back to patent US20250346668A1.

pEC50: −log10 of the molar value.

Take HIT3a (antibody): in assay [1], the pEC50 (as a rule, the EC50 on a negative log10 scale, so that one unit is a factor of ten) is 8.38; the OD450 nm at 0.000853 nM is 0.07 OD450 nm; the OD450 nm at 0.0043 nM was 0.07 OD450 nm; the OD450 nm at 0.02 nM is 0.08 OD450 nm. In assay [1], the OD450 nm at 0.11 nM was found to be 0.12 OD450 nm, the OD450 nm at 0.53 nM was 0.31 OD450 nm, the OD450 nm at 2.67 nM came out at 0.59 OD450 nm and the OD450 nm at 13.3 nM was 0.94 OD450 nm. For the same substance, the OD450 nm at 66.7 nM in assay [1] worked out at 1.22 OD450 nm. For the same substance, in assay [2], the OD450 nm at 0.000853 nM is 0.04 OD450 nm, the OD450 nm at 0.0043 nM is 0.04 OD450 nm, the OD450 nm at 0.02 nM turned out to be 0.04 OD450 nm and the OD450 nm at 0.11 nM was determined as 0.04 OD450 nm. In assay [2], the OD450 nm at 0.53 nM is 0.04 OD450 nm, the OD450 nm at 2.67 nM was 0.04 OD450 nm, the OD450 nm at 13.3 nM was 0.04 OD450 nm and the OD450 nm at 66.7 nM is 0.04 OD450 nm.
For OKT3 (antibody), in assay [1], the pEC50 was 8.53, the OD450 nm at 0.000853 nM turned out to be 0.07 OD450 nm, the OD450 nm at 0.0043 nM was determined as 0.08 OD450 nm and the OD450 nm at 0.02 nM turned out to be 0.09 OD450 nm. In assay [1], this substance yielded an OD450 nm at 0.11 nM of 0.17 OD450 nm, an OD450 nm at 0.53 nM of 0.47 OD450 nm, an OD450 nm at 2.67 nM of 0.8 OD450 nm and an OD450 nm at 13.3 nM of 1.21 OD450 nm. The substance further gave an OD450 nm at 66.7 nM in assay [1] of 1.53 OD450 nm. In assay [2], this substance came in with an OD450 nm at 0.000853 nM of 0.04 OD450 nm, an OD450 nm at 0.0043 nM of 0.04 OD450 nm, an OD450 nm at 0.02 nM of 0.04 OD450 nm and an OD450 nm at 0.11 nM of 0.04 OD450 nm. In assay [2], this substance returned an OD450 nm at 0.53 nM of 0.04 OD450 nm, an OD450 nm at 2.67 nM of 0.03 OD450 nm, an OD450 nm at 13.3 nM of 0.25 OD450 nm and an OD450 nm at 66.7 nM of 0.26 OD450 nm.
SP34 (antibody): in assay [1], the negative-log EC50 (pEC50) was 9.19, the OD450 nm at 0.000853 nM was 0.18 OD450 nm, the OD450 nm at 0.0043 nM was determined as 0.1 OD450 nm and the OD450 nm at 0.02 nM is 0.15 OD450 nm. Besides, in assay [1], the OD450 nm at 0.11 nM came to 0.38 OD450 nm, the OD450 nm at 0.53 nM worked out at 1.45 OD450 nm, the OD450 nm at 2.67 nM was determined as 3.1 OD450 nm and the OD450 nm at 13.3 nM stood at 3.29 OD450 nm. Besides, in assay [1], the OD450 nm at 66.7 nM worked out at 3.23 OD450 nm. In assay [3], this substance had a negative-log EC50 (pEC50) of 8.82, an Emax (OD) of 2.01 OD, an OD450 nm at 0.00128 nM of 0.05 OD450 nm and an OD450 nm at 0.0064 nM of 0.06 OD450 nm. In assay [3], this substance displayed an OD450 nm at 0.032 nM of 0.09 OD450 nm, an OD450 nm at 0.16 nM of 0.23 OD450 nm, an OD450 nm at 0.8 nM of 0.7 OD450 nm and an OD450 nm at 4 nM of 1.49 OD450 nm. In assay [3], this substance came in with an OD450 nm at 20 nM of 2.01 OD450 nm and an OD450 nm at 100 nM of 1.87 OD450 nm. In addition, in assay [2], the negative-log EC50 (pEC50) was 9.26, the OD450 nm at 0.000853 nM turned out to be 0.12 OD450 nm, the OD450 nm at 0.0043 nM is 0.2 OD450 nm and the OD450 nm at 0.02 nM was 0.19 OD450 nm. In assay [2], this substance had an OD450 nm at 0.11 nM of 0.5 OD450 nm, an OD450 nm at 0.53 nM of 1.83 OD450 nm, an OD450 nm at 2.67 nM of 3.41 OD450 nm and an OD450 nm at 13.3 nM of 3.57 OD450 nm. In addition, the OD450 nm at 66.7 nM in assay [2] turned out to be 3.55 OD450 nm.
In assay [1], mouse IgG (antibody) returned an OD450 nm at 0.000853 nM of 0.177 OD450 nm, an OD450 nm at 0.0043 nM of 0.101 OD450 nm, an OD450 nm at 0.02 nM of 0.08 OD450 nm and an OD450 nm at 0.11 nM of 0.09 OD450 nm. In assay [1], this substance came in with an OD450 nm at 0.53 nM of 0.14 OD450 nm, an OD450 nm at 2.67 nM of 0.07 OD450 nm, an OD450 nm at 13.3 nM of 0.1 OD450 nm and an OD450 nm at 66.7 nM of 0.15 OD450 nm. For the same substance, in assay [2], the OD450 nm at 0.000853 nM stood at 0.0698 OD450 nm, the OD450 nm at 0.0043 nM turned out to be 0.101 OD450 nm, the OD450 nm at 0.02 nM amounted to 0.07 OD450 nm and the OD450 nm at 0.11 nM is 0.07 OD450 nm. Moreover, in assay [2], the OD450 nm at 0.53 nM was 0.06 OD450 nm, the OD450 nm at 2.67 nM was 0.07 OD450 nm, the OD450 nm at 13.3 nM is 0.07 OD450 nm and the OD450 nm at 66.7 nM is 0.08 OD450 nm.
